# Test results: the DeepSol protein solubility set
# Test: soluble on expression in E. coli; label from the status in PepcDB or PDB records
row,Sequence,soluble on expression in E. coli
1,MAAEEATEFYLRYYVGHKGKFGHEFLEFEFREDGKLRYANNSNYKNDTIIRKEVFLTPAVLKECKRIVSESEILKEDDNNWPEPDRVGKQELEIVLGNEHISFATSKIGSLVDCQSSNDPEGLRIFYYLVQDLKCLVFSLISLHFKIKPILEHHHHHH,not soluble
2,MAHHHHHHMRRSALRGAARGNDNGAICRRYRDTSLCVVTSLTPSVHGGGSTSVVASSSSLSCPPRPSACYATAMHMSARHRLTNASILSNIKSMANEKDDLTSKLVYLRRRQEDAIAFAVKEKEMLAEKAKRQLAMEEEKLKVEARIEALISEAAQLGGPAAAQRMRDEIAKDKTRYVRSVDAFGDKTVRLQHTFAGLADNRIIHWWEYAYWNYIRYFFTQELLIAKDRFGNKFTVTWQFLKGREEQRRMYRKDSNKKHQPYGALATDERLWERWMRGHRGDPPSVAEEEHLRDYKKQFFGAMVLEDEEVEDALMRLMAHMNRASQTFQELDEDQVYGDAHRVAKPLRETERKPGEEMSARQKQKGATWTLGFARGDLFYNEEETQVMRTEMGHLFRNMEWQELEYKRQVRMNKQQPPHGKPPEGTTDPNTPDGDPMNHYWERTDLGIPYHDAVPDLTTPELERMRIESSQLEDERLAIRKELGLTDLGDIREGREPIKRDHAPFQPPPVSQRWKPKCWEESWGTGSGMKY,not soluble
3,MSYKIVIDSCGELLDEWKKDPRFESVALTLSVGGENIIDDENFDQASFLKKVADCPECPKSACPSPERYMRAFDCDADHVYAVTLSAELSGSYNSAVLGKSLLQEENPGKQIYVFNSKSASVGQSLIAMKIQECEEAGYSFEKVIETVEAYIADQHTFFVLDNLETLRKNGRLSKVKALVASALKIKPVMGSTDEGAICQLDQARGMNKALVKMAQNIVDKTKDSENKILAISHCNCRERAVLLKNALEERMPVKHIVILDTAGVSSMYANDGGVIVAV,not soluble
4,MDPSSIDLGSIPGGSEQQQHEDGAAAAAGSPKEVFRSQQSLGLITQRFMSLRQRNEVLNLNEVAKELNISKRRVYDVINVLEGLGYVEKVEKNNIRWIGDNNNSEEQNALEARVEMLRQQEKLLELMIRDAQAIIELHFEDPIERPYNYVSKEDIRKTAEPNTKSIIVKSELDTSSSFEIQVTDPSTSGSHDMIVRNKNGVKSHALLFTNDPPEYGDEEDEDDVKKLSSQKRFETSEALRVTLAEMLTDPTTISSSPKHIKLEEPEEIDTEDLETFAPPEFSENKWSQKIGGGLAILWAWLALMPRPQNGNFFSAKFFKFFPETVARKTFVLPPSTSASQSNAPYLPETPGRGLFFSPFKSLIDPCILPSFSDDLTSGYINITTPSRATGAGAGASGQEDEEPVSVMDFFSD,not soluble
5,MNEDVIVDRQYSHGAALTIRAFWAADEESRAAIAKASGLRWVPSSADQPGEQHWPYTEIFQRQMQMELGPDTETRLRIHQPSQLWVRAPSLGEGWLAVPLYPHPLRGQRI,not soluble
6,REPLSFSLFSQPECVEQPERLAQVFALLVNAHYQTSPNDLFALLQDEAMTLFVAYQGEVCVGCVLAVREGELDAPTIEAIQLGTRRPKGHLTPVTLANQLGISQAARQSCWRILRIAVHPDCQRQGIGSQLLTHFIAQHHADYYATSFGVSEDLLPFWLANHFVPIKLGSHRDQASGCYSLLMVRG,not soluble
7,MGSDKIHHHHHHMSVLVVGMSHRSAPVALLEKLSMDDGVRTNTVSDLVARPSLAEAMIVSTCNRLEVYAMTSSFHTGVNDVVEVLHDMSGVDMEELRGYLYVRYADAAAEHMMEVTSGLDSMVVGEQQIIGQVRTAYHSATEAGTVGPALHGLVQASLHTGKRVHTETDIDDAGASMVSFACDEALAQMSATNFAGCRALVLGAGAMASLAATHLGRLGIEHITVANRTFERAQRLADHAVEAGVAASAIEFERRMDVLCDVDVVVSATGANTFTIEAANIPAAHGDLMMIDLSLPRDISDDVAEVPGVHLVNIEKLRDVASSGEAKDHAAQRIVAEELEAYTSAQRIRDVAPAVAALRRHASSLIDSELARLSTRVPSMDEDDFSEVQRTVRRVVDKLLHQPTVRVKELAAQSGTVSYDTAIQELFGLAVEATPVAVNVDELPERINKR,not soluble
8,GPGSMEVKIGKDVALLTAHKTYRDDGEDMVKAVATYVPFMNYVAACESSGLVPSAFLVRNVRHIARRVVGVIMDVECNTPTGKIVQPVEMSDFSPAILLPVVIVETVRYALLLQRRCVAVGCGLTTEAFCGAKDSGDNITWQNHELLTSAGFDLRDVRKLGFGEYSVGNEGLPPYTLHTIKKGMSSEEFEQLQKISAGTADASLFAVRLEDVMSSVNDAKAGLAASVLLLES,soluble
9,MSEVLITGLRTRAVNVPLAYPVHTAVGTVGTAPLVLIDLATSAGVVGHSYLFAYTPVALKSLKQLLDDMAAMIVNEPLAPVSLEAMLAKRFCLAGYTGLIRMAAAGIDMAAWDALGKVHETPLVKLLGANARPVQAYDSHSLDGVKLATERAVTAAELGFRAVKTRIGYPALDQDLAVVRSIRQAVGDDFGIMVDYNQSLDVPAAIKRSQALQQEGVTWIEEPTLQHDYEGHQRIQSKLNVPVQMGENWLGPEEMFKALSIGACRLAMPDAMKIGGVTGWIRASALAQQFGIPMSSHLFQEISAHLLAATPTAHWLERLDLAGSVIEPTLTFEGGNAVIPDLPGVGIIWREKEIGKYLV,soluble
10,MGSDKIHHHHHHVNDGSNDFELLGSPWICENPHANWTAPAAHGMFKRFKKKEIIIHSGDQIDYIYYLHKGRIKTVAQSPSGSQKILWYIEAGSIFGETPFFNRKPCDYNFFAVTDCEIYIYPMEVIMQEIIPKFPDLTLSIIKTLSRKVHILSTQVEDCVFNKPLVRVAKLIYLLHQGRILEDKRGSSSIPLTQEDIANTLGMHRVTVNQALKHLKEIQALKEHTHLIIIHDPEKLKEVMEA,not soluble
11,MAHHHHHHMGTVSPARRVASPGKGKRSPSRGETPSEGRTRRAGSSPSSRPGMQTASQRAARKKEVRRLRDAELLLDEAPLSMVGERAQDALEAMLRALDIRRNASATPKKMQPVWHHVKALVVTANREGLRRAYAAFPAEEGHYFFGKALSTLEYSASTVNTAADGGEFAECPLLLSHLMEATLNNIAFQQYIAHEPPEAILKTLQRALKVQHHQAFRTLTLYNMAVAFLAARRYEDATEFVARCSQVAEVCLELEVSLTREISSLYKEYHTMVATHAIMCHHLLAGLAAWSGESDMEVYHAQLALCCATKFLCRG,not soluble
12,MDNEEYYKILGVAKSASQDEIKHAYRKMSKKYHPDLNHQPGAEDKYKQVQEAYETLGDPQKRAAYDQYGKAGANANNGQGGFGGFQQSGFNFNGQDFGDFSDIFSQMFGGSFNPNAPRKGRDLQYRINLTFEEAVFGKETEIKYVRQESGGNSKEHTVKVTIPAGVETGQQMRLAGQGEAGTHGGPYGDLYVEFIVGKSKDGFERQGANIYLEEPINFVQAALGDKIKVKTVHGDVELTIPAGTQTDTEFRLRGKGAPYVNSSRIGDEYVKVIVQVPKRLNEKEKKALKTYADLRGENVNPQKRRGLFG,not soluble
13,MLSCVIPAHDEAALIGQTLQCLHACAQAMQLDYEAIVVADACSDDTAAIARANGASVIEVELRHIAATRNAGAQAAQGDRLLFLDADTQVNPQVMAAALAALDAGAVGGGARVHLHGKRVWVERMAQAVFGWIFRLSGIAPGCFLFCTRAAFASAGGFDTRYYAGEDVALSRSLARCGRFVILRQTVHTSDRKLRSFSKREHVGLLLRFLWRGRRMLQTRDALGFWYQRRRLEHHHHHH,not soluble
14,SAEEKVKDEAMQIMGMFQILPRLVVFDLDYTLWPFYCECRSKREMPSMYPQAKGILSALKEKGIEMAIASRSPTSDIANTFLDKLNIKPMFVAKEIYSSWSHKTEHFQKIHTRTGVPFTAMLFFDDEDRNIKSVSKMGVTSILVGDGVTLGAFRQGLTEFTQNHNSIEKNKQVWRDKYSGKPTSSETDKD,soluble
15,MNLKAMDAILEDCCDIVCSDYLPSAMIKSMCIVAERINNLNKAVSLFTSNPAKAVGIYDERGSIKENKKADLVLVDIDSEYPKVVNTIVNGKTVYKRELEHHHHHH,not soluble
